# Measurements as given in patent US20090324601A1 (published 2009).
# Several values for one entry are separate records, joined by “and”; a condition that tells them apart may be missing. Equal entries are not always repeated.
# B1: 2.175.3 variant A (antibody, V domains shown)
# VH: QVQLVESGGGLVKPGGSLRLSCAASGFTFSDYYMHWIRQAPGKGLEWVSYISRSGSLIYYVDSVKGRFTISRDNAKNSLYLQMNSLRAEDTAVYYCARGGPYSGSPFDYWGQGTLVTVSS
# VL: DIQMTQSPSSLSASVGDRVTITCRPSQRISRYLNWYQQKPGKAPKLLIYAASSLPSGVPSRFSGSGSGTDFTLTISSLQPEDFATYYCQQSYSTPPWTFGQGTKVEIK
# B2: 2.175.3 (antibody, V domains shown)
# VH: QVHLVESGGGLVKPGGSLRLSCAASGFTFSDYYMHWIRQAPGKGLEWVSYISRSGSLIYYVDSVKGRFTISRDNAKNSLNLQMNSLRAEDTAVYYCARGGPYSGSPFDYWGQGTLVTVSS
# VL: DIQMTQSPSSLSASVGDRVTITCRPSQRISRYLNWYQQKPGKAPKFLIYAASSLPSGVPSRFSGSGSGTDFTLTISTLQPEDFATYYCQQSYSTPPWTFGQGTKVEIK
# notes: Variable regions only
# B3: 2.175.3 (antibody, V domains shown)
# VH: QVHLVESGGGLVKPGGSLRLSCAASGFTFSDYYMHWIRQAPGKGLEWVSYISRSGSLIYYVDSVKGRFTISRDNAKNSLNLQMNSLRAEDTAVYYCARGGPYSGSPFDYWGQGTLVTVSS
# VL: DIQMTQSPSSLSASVGDRVTITCRPSQRISRYLNWYQQKPGKAPKFLIYAASSLPSGVPSRFSGSGSGTDFTLTISTLQPEDFATYYCQQSYSTPPWTFGQGTKVEIK
# B4: 2.351.3 (antibody, V domains shown)
# VH: QVQLVQSGAEVKKPGASVKVSCKASGYTFIGYYLHWVRQAPGQGLEWMGSINPNSGGTNYAQKFQGRVTMIRDTSINTAYMELSRLRSDDTAVYYCARDKRITMVRGVHYLYYGWDVWGQGTTVTVSS
# VL: DIQMTQSPSSLSASVGDRVTITCRASQVISNYLAWYQQKPGKVPQLLIYAASTLQSGVPSRFSGSGSGTDFTLTISSLQPEDVATYYCQNYKSAPWTFGQGTKVEIK
# B5: 2.449.1 variant A (antibody, V domains shown)
# VH: QVQLVESGGGLVKPGGSLRLSCAASGFTFSDYYMNWIRQAPGKGLEWVSYISSSGSIIYYADSVKGRFTISRDNAKNSLYLQMNSLRAEDTAVYYCAREGRIAARGMDVWGQGTTVTVSS
# VL: DIQMTQSPSSLSASVGDRVSITCRPSQSFSRYINWYQQKPGKAPKLLIYAASSLVGGVPSRFSGSGSGTDFTLTISSLQPEDFATYYCQQTYSNPPITFGQGTRLEIK
# notes: also called 2.449.1.3 Variant A; 2.449.1.3 variant A
# B6: 2.737.1.4 (antibody, V domains shown)
# VH: QVQLVESGGGLVKPGGSLRLSCAASGFTFRDYYMSWIRQAPGKGLEWVAFISSSGSIIYYADSVKGRFTISRDNAKNSLFLQMNSLRAEDTAVYYCARDGHIAARGMDVWGQGTTVTVSS
# VL: DIQMTQSPSSLSASVGDRVTITCRASQSINKYINWYQQKPGKAPKLLIYAASSLQSGVPSRFNGSGSGTDFTFTINTLQPEDFATYYCQQTYSTPPITFGQGTRLEIK
# B7: 2.449.1.3 (antibody, V domains shown)
# VH: QVQLVESGGGLVKPGGSLRLSCAASGFTFSDYYMNWIRQAPGKGLEWVSYISSSGSIIYYADSVKGRFTISRDNAKNSLYLQMNSLRAEDTAVYYCAREGRIAARGMDVWGQGTTVTVSS
# VL: DIQMTQSPSSLSASVGDRVSITCRPSQSFSRYINWYQQKPGKAPKLLIHAASSLVGGVPSRFSGSGSGTDFTLTISSLQPEDFATYYCQQTYSNPPITFGQGTRLEMK
# notes: also called 2.449.1.3 (control)
# B8: 2.449.1.3 (antibody, V domains shown)
# VH: QVQLVESGGGLVKPGGSLRLSCAASGFTFSDYYMNWIRQAPGKGLEWVSYISSSGSIIYYADSVKGRFTISRDNAKNSLYLQMNSLRAEDTAVYYCAREGRIAARGMDVWGQGTTVTVSS
# VL: DIQMTQSPSSLSASVGDRVSITCRPSQSFSRYINWYQQKPGKAPKLLIHAASSLVGGVPSRFSGSGSGTDFTLTISSLQPEDFATYYCQQTYSNPPITFGQGTRLEMK
# notes: identified by its values; also called mAb 2.449.1.3
# B9: 2.998.2 (antibody, V domains shown)
# VH: QLQLQESGPGLVKPSETLSLTCTVSGDSISSFIYYWGWIRQPPGKGLEWIGTIYYSGSTYYNPSLKSRVTISVDTSKNQFSLKLRSVTAADTAVYYCARHHWVFDYWGQGTQVTVSS
# VL: DIVLTQFPDFQSVTPKEKVTITCRASQVIGSSLHWYQQKPDQSPKLLIKYASQSFSGVPSRFSGSGSGTDFTLTINSLEVEDAATYYCHQSTILPWTFGQGTKVEVK
# notes: identified by its values; also called mAb 2.998.2
# B10: 2.84.3 (antibody, V domains shown)
# VH: QLQLQESGPGLVKPSETLSLTCTVSGGFISSSSYYWGWIRQPPGKGLEWIGTIYYSGTTYYNSSLKSRVTISVDTSQNQFSLKLSSVTAADTAVYYCARHHWVFDYWGQGTLVTVSS
# VL: EVVLTQSPDFQSVTPKEKITITCRASQIIGTSLHWYQKKPDQSPKLLIKYASQSFSGVPSRFSGSGSGTEFTLTINSLEAEDTATYYCHQSTNLPWTFGQGTKVEIK
# B11: 2.998.2 (antibody, V domains shown)
# VH: QLQLQESGPGLVKPSETLSLTCTVSGDSISSFIYYWGWIRQPPGKGLEWIGTIYYSGSTYYNPSLKSRVTISVDTSKNQFSLKLRSVTAADTAVYYCARHHWVFDYWGQGTQVTVSS
# VL: DIVLTQFPDFQSVTPKEKVTITCRASQVIGSSLHWYQQKPDQSPKLLIKYASQSFSGVPSRFSGSGSGTDFTLTINSLEVEDAATYYCHQSTILPWTFGQGTKVEVK
# B12: 2.84.3 (antibody, V domains shown)
# VH: QLQLQESGPGLVKPSETLSLTCTVSGGFISSSSYYWGWIRQPPGKGLEWIGTIYYSGTTYYNSSLKSRVTISVDTSQNQFSLKLSSVTAADTAVYYCARHHWVFDYWGQGTLVTVSS
# VL: EVVLTQSPDFQSVTPKEKITITCRASQIIGTSLHWYQKKPDQSPKLLIKYASQSFSGVPSRFSGSGSGTEFTLTINSLEAEDTATYYCHQSTNLPWTFGQGTKVEIK
# Tests used:
# [1] = target: T1, Recombinant human sPDGFR-alpha (R&D catalog# 322-PR/CF) (human, UniProt P16234 24-528); experiment: Biacore T100 SPR, 22 C, mAb immobilised on CM5, sPDGFR-alpha injected, 1:1 fit
# T1 construct: extracellular domain; Bought reagent; also called soluble PDGFRa; recombinant soluble PDGFR-alpha extracellular domain
# T1 sequence (P16234 24-528): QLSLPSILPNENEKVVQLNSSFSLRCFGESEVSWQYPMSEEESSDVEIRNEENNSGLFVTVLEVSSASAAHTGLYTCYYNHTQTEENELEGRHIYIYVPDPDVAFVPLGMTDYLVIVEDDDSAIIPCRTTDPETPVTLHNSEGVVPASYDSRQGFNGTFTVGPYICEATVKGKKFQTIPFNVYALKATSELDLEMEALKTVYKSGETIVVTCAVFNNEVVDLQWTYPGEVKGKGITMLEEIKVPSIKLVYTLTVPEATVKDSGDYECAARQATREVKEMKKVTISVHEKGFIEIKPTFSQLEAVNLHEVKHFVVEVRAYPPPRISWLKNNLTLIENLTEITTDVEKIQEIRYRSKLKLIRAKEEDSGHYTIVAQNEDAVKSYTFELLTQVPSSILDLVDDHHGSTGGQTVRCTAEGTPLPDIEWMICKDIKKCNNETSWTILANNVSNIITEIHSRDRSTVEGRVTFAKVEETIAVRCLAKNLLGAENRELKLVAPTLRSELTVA
# [2] = target: T2, PDGFR-alpha on human osteosarcoma MG-63 cells (human, UniProt P16234 24-1089); experiment: cell-based or functional assay
# T2 sequence (P16234 24-1089): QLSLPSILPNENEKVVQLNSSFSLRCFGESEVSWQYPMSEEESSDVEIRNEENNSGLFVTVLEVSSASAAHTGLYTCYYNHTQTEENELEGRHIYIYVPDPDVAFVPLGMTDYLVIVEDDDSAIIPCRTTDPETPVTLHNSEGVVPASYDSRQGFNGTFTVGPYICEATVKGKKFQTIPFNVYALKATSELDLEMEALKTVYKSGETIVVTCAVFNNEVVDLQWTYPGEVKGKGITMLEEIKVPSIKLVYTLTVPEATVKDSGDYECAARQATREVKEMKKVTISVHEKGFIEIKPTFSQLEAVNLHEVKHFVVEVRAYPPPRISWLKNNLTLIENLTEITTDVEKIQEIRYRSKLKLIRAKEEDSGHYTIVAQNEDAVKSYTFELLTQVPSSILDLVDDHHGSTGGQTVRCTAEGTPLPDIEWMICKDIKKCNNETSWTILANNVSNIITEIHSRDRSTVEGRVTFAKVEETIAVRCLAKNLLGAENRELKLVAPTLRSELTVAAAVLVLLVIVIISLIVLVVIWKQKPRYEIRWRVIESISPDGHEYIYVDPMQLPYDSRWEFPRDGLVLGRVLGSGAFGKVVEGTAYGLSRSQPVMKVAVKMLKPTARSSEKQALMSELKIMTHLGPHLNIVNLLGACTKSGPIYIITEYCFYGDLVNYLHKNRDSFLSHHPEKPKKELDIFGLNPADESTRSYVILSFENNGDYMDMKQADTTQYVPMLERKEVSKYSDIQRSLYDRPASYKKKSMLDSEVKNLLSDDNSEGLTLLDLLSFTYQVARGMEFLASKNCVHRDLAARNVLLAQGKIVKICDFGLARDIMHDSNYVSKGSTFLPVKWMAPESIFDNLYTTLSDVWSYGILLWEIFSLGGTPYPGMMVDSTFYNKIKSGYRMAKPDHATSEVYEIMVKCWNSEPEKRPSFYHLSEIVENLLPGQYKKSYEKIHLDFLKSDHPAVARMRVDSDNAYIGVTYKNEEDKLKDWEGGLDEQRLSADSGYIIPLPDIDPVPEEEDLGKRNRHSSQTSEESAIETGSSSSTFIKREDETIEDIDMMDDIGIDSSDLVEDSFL
# [3] = target: T1, Recombinant human sPDGFR-alpha (R&D …); experiment: soluble PDGFRa binding ELISA, plate coated with recombinant human PDGFR-alpha
# CSF-1R = CSF-1R (UniProt P07333 20-512, limits assumed); experiment: method not described
# Sequence of CSF-1R (P07333 20-512 limits assumed): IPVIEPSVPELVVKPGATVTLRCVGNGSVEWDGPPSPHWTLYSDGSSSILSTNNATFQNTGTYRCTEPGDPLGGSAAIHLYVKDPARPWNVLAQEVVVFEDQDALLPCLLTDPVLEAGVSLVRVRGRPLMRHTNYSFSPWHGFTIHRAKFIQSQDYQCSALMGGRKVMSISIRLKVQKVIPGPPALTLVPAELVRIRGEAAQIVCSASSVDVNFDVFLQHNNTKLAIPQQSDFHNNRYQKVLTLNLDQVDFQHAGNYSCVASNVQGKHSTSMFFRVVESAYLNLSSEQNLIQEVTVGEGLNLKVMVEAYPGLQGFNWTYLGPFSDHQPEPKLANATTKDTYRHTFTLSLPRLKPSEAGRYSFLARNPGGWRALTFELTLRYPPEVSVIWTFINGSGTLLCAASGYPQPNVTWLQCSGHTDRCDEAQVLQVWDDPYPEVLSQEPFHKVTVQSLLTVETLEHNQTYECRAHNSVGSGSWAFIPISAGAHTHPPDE
# c-kit = c-kit (UniProt P10721 26-520, limits assumed); experiment: method not described
# Sequence of c-kit (P10721 26-520 limits assumed): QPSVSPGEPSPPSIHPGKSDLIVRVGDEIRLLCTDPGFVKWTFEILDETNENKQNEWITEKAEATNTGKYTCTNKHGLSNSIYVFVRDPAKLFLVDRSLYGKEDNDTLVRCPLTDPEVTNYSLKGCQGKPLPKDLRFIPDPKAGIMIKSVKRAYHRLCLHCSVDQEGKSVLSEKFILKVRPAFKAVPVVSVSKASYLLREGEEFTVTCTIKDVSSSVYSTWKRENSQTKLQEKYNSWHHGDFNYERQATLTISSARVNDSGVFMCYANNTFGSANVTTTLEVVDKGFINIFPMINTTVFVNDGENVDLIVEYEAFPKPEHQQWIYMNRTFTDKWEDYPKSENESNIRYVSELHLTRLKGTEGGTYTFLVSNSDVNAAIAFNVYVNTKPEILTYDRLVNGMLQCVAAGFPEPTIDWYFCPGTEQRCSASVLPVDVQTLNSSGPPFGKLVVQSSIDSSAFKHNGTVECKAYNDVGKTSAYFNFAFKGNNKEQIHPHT
# FLT3 = FLT3 (UniProt P36888 27-541, limits assumed); experiment: method not described
# PDGFR-beta = PDGFR-beta (UniProt P09619 33-530, limits assumed); experiment: method not described
# Sequence of PDGFR-beta (P09619 33-530 limits assumed): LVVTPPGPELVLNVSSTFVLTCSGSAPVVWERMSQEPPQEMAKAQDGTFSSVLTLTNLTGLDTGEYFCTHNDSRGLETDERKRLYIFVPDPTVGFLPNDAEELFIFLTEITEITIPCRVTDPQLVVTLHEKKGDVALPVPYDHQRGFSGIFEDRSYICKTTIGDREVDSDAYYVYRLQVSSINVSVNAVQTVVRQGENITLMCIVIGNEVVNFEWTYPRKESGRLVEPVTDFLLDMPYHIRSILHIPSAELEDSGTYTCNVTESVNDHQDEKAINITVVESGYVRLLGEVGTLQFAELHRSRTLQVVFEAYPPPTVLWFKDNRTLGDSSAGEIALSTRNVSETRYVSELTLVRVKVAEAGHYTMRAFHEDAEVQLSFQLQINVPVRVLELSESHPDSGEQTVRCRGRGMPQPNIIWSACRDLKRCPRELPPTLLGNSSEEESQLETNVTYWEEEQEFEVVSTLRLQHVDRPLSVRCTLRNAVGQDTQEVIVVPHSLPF
# [4] = target: T3, Mouse PDGFRa on NIH3T3 cells (mouse, UniProt P26618 25-1089); experiment: FACS on NIH3T3 cells, 10 ug/ml antibody
# T3 construct: whole, on cells; also called endogenous PDGFRa of NIH3T3 murine fibroblasts
# T3 sequence (P26618 25-1089): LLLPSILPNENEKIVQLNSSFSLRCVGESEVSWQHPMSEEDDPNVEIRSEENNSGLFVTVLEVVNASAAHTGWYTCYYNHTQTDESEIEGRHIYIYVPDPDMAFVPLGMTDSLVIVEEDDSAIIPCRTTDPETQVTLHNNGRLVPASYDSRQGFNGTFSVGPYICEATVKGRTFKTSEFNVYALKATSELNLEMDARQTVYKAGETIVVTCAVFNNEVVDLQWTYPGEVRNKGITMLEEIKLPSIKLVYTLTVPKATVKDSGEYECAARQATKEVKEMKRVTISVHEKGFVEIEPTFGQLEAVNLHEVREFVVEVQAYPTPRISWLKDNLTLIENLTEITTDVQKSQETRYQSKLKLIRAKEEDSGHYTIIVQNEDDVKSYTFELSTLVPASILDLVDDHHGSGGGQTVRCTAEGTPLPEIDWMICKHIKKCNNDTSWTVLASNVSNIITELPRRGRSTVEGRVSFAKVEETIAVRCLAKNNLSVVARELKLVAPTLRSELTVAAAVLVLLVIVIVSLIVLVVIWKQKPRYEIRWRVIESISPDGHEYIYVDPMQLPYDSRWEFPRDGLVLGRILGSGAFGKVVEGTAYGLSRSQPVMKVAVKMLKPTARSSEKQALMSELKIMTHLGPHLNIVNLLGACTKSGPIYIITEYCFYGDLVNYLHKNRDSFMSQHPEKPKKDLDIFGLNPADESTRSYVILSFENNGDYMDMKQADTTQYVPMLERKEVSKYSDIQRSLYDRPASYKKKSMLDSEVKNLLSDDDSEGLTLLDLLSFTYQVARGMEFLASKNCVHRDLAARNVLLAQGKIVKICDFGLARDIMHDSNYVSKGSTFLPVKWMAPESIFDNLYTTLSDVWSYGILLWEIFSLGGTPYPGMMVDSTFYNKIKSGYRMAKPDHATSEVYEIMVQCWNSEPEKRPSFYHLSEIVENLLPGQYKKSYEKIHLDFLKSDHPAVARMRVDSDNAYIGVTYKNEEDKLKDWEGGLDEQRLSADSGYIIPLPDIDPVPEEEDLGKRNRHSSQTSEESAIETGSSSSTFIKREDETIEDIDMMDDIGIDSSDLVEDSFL
# [5] = target: T4, PDGFR-alpha on MG-63 cells (human, UniProt P16234 24-1089); experiment: cell-based or functional assay
# T4 sequence (P16234 24-1089): as the sequence (P16234 24-1089) above
# [6] = target: T4, PDGFR-alpha on MG-63 cells; experiment: cell-based or functional assay; remark: listed apart in the source
# [7] = target: T4, PDGFR-alpha on MG-63 cells; experiment: FACS titration on MG-63 cells expressing PDGFR-alpha, 4 °C, Cy5 secondary antibody, nonlinear fit of geometric mean fluorescence
# [8] = target: T5, murine PDGFRa on NIH3T3 cells (murine, UniProt P26618 25-1089); experiment: FACS on NIH3T3 cells, goat anti-human IgG Cy5
# T5 construct: whole, on cells; also called mouse PDGFR-alpha
# T5 sequence (P26618 25-1089): as the sequence (P26618 25-1089) above
# [9] = target: T2, PDGFR-alpha on human osteosarcoma MG-63 …; experiment: cell-based or functional assay; remark: listed apart in the source
# [10] = target: T2, PDGFR-alpha on human osteosarcoma MG-63 …; experiment: FACS titration on MG-63 cells, 4 C, Cy5 goat anti-human detection
Binder,Kd [1],koff [1],kon [1],Average pTyr Inhibition [5],"PROLIFERATION ASSAY: MG-63 CELLS, IC50 [6]",Kd [7],binding result [8],Proliferation Assay: IC50 ng/ml (1-6-06) [9],Proliferation Assay: IC50 ng/ml (1-23-06) [9],pTyr Assay: % Inhibition @ 2 µg/ml [9],Proliferation Assay: IC50 (1-6-06) [9],Proliferation Assay: IC50 (1-23-06) [9],further results
B1,0.0071 nM,2.53e-06 s⁻¹,355000 M⁻¹ s⁻¹,–,–,–,–,–,–,–,–,–,PTYR Assay IC50 [2]: 29 ng/mL; IC50 [3]: 0.046 µg/mL
B2,–,–,–,–,–,–,–,–,–,–,–,–,binding result (CSF-1R): no binding; binding result (c-kit): no binding; binding result (FLT3): no binding; binding result (PDGFR-beta): no binding; binding result [4]: binds
B3,–,–,–,99%,0.37 nM,0.328 nM,–,–,–,–,–,–,–
B4,–,–,–,–,–,–,no binding (tested: 10 ug/ml),1080 ng/mL,649 ng/mL,97%,–,–,–
B5,0.0086 nM,3.8e-06 s⁻¹,440000 M⁻¹ s⁻¹,–,–,–,–,–,–,–,–,–,PTYR Assay IC50 [2]: 31 ng/mL; IC50 [3]: 0.045 µg/mL
B6,–,–,–,–,–,–,no binding (tested: 10 ug/ml),551 ng/mL,558 ng/mL,99%,3.7 nM,3.73 nM,–
B7,–,–,–,99%,1.57 nM,0.052 nM and 0.053 nM,–,–,–,–,–,–,–
B8,0.14 nM,6.16e-05 s⁻¹,440000 M⁻¹ s⁻¹,–,–,–,no binding (tested: 10 ug/ml),179 ng/mL,237 ng/mL,99%,1.2 nM,1.57 nM,PTYR Assay IC50 [2]: 21 ng/mL; IC50 [3]: 0.044 µg/mL; Kd [10]: 0.052 nM
B9,0.164 nM,4.89e-05 s⁻¹,298000 M⁻¹ s⁻¹,–,–,–,no binding (tested: 10 ug/ml),308 ng/mL,316 ng/mL,99%,2.05 nM,2.1 nM,Kd [10]: 0.057 nM
B10,–,–,–,98%,481 ng/ml and 3.2 nM,0.227 nM,–,–,–,–,–,–,–
B11,–,–,–,99%,2.1 nM,0.057 nM,–,–,–,–,–,–,–
B12,–,–,–,–,–,–,no binding (tested: 10 ug/ml),192 ng/mL,481 ng/mL,98%,1.3 nM,3.2 nM,Kd [10]: 0.227 nM
